Data as given in publication PMC3381998.

How the values were obtained:
[1] = biological target: SEPT7 (UniProt Q16181); assay: co-IP
[2] = biological target: SEPT6 (UniProt Q14141); assay: co-IP
Chain of SEPT6 (Q14141 whole entry): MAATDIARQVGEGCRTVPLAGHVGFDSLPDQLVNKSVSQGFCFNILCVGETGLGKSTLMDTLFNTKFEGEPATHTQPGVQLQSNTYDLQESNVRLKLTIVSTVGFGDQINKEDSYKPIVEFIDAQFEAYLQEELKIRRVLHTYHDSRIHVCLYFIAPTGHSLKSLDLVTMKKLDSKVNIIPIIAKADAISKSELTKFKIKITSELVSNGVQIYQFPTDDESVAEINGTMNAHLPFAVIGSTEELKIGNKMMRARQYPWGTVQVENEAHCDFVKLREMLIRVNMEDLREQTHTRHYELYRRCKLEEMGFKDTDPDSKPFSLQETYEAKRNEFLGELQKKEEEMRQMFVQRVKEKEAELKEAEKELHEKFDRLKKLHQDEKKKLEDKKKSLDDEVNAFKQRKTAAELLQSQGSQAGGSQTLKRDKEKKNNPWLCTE

Chain of SEPT7 (Q16181 whole entry): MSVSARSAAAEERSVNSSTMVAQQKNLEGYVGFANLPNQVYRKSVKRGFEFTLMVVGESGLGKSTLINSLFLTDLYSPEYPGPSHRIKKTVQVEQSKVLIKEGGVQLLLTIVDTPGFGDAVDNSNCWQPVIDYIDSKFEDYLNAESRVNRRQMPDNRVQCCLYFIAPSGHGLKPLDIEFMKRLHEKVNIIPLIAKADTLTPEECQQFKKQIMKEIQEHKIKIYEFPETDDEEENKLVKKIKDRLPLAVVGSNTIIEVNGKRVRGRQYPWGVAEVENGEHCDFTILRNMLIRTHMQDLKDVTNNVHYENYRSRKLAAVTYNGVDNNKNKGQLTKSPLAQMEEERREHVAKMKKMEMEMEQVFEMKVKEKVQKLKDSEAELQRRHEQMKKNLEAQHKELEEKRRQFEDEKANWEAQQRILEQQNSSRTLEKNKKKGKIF

| Substance | percent of total SEPT6 precipitated with SEPT7 [1] [%] | percent of SEPT7 depleted on immunodepletion of SEPT6 [2] [%] | percent of SEPT7 that interacts with SEPT6 [2] [%] |
| --- | --- | --- | --- |
| SEPT6 (from UniProt Q14141 1-434) (natural protein) | 24 | – | – |
| SEPT7 (from UniProt Q16181 1-437) (natural protein) | – | 30 | 43 |
